In article PMC7392888:

Tested on: O=C(Cc1cccs1)N[C@@H]1C(=O)N2C(C(=O)O)=C(/C=C/c3ccc([N+](=O)[O-])cc3[N+](=O)[O-])CS[C@H]12
Test: purified protein
Settings: Zn2+ enzyme; steady-state buffer and pH not given here; King-Altman value from pre-steady-state data listed separately

Substance	Km [µM]	kcat [s⁻¹]
MIM-1 (Novosphingobium pentaromativorans US6-1)	41 ± 10	17 ± 4
SAM-1 (Simiduia agarivorans SA1 = DSM 21679)	20 ± 3	10 ± 5
